Here are results for one molecule from patent US20240083986A1 (published 2024).

The target of test [1] is T1, mutant Bet v 1-MMH (Betula verrucosa (European white birch, …)).
T1 construct: also called CHO produced recombinant Bet v 1 containing a S85A mutation with a C-terminal myc-myc hexahistidine tag
T1 chain: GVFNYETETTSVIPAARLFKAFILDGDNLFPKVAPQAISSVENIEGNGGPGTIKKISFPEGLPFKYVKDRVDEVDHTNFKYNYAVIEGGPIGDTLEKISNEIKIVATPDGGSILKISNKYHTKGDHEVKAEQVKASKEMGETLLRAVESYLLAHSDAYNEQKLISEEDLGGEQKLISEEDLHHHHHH
The test can be described thus: SPR Biacore, 25C and 37C.

Test [2] concerns the target T2, natural Bet v 1 (Indoor, Cat #NA-BV1-1) (Betula verrucosa (European white birch, …, UniProt P15494 2-160)).
T2 construct: Bought natural protein purified from birch pollen; also called nBet v 1
T2 sequence: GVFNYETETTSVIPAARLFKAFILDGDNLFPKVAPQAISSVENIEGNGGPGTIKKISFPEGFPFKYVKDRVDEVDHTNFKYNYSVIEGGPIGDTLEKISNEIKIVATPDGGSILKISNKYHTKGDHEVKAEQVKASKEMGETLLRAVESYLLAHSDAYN
The test can be described thus: SPR Biacore, mAb captured on anti-hFc, 25C. (In general: In SPR one partner is held on a chip, and binding of the other changes the refractive index at the surface.)

Test [3] deals with T3, Apple (Mal d 1, MyBiosource, Cat #MBS1224919) (Apple, UniProt P43211 2-159, limits assumed).
T3 construct: Bought reagent
T3 sequence (looked up): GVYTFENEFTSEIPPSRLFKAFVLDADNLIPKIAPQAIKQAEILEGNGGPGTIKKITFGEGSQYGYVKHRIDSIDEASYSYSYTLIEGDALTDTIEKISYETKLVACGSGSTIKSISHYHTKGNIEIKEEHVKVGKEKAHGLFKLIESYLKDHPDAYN
The experiment in a line: SPR Biacore, 25C.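 Note: binding of related allergens to purified monoclonal anti-Bet v 1 antibodies by surface plasmon resonance in HEPES-buffered saline pH 7.4, kinetics fitted to a 1:1 model with mass transport.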

The target of test [4] is T4, European Hornbeam (Car b 1 isoform 1A & 1B, MyBiosource, Cat #MBS1200018) (European Hornbeam, UniProt P38949 2-160).
T4 construct: Bought reagent
T4 sequence (looked up): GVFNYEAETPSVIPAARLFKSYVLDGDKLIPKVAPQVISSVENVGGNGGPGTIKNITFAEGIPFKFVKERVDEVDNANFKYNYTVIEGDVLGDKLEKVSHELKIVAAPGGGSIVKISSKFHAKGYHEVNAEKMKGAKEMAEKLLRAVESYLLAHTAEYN
The experiment in a line: SPR Biacore, 25C.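 Note: binding of related allergens to purified monoclonal anti-Bet v 1 antibodies by surface plasmon resonance in HEPES-buffered saline pH 7.4, kinetics fitted to a 1:1 model with mass transport.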

The target in test [5] is T5, Alder (Aln g 1, MyBiosource, Cat #MBS1041484) (Alder, UniProt P38948 2-160, limits assumed).
T5 construct: Bought reagent
T5 sequence (looked up): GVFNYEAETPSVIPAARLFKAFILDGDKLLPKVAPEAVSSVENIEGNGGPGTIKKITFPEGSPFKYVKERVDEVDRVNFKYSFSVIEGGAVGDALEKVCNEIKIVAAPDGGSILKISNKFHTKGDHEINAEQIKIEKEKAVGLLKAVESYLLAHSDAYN
The test can be described thus: SPR Biacore, 25C.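 Note: binding of related allergens to purified monoclonal anti-Bet v 1 antibodies by surface plasmon resonance in HEPES-buffered saline pH 7.4, kinetics fitted to a 1:1 model with mass transport.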

For test [6], the target named is T6, European Hornbeam (Car b 1 isoform 2, MyBiosource, Cat #MBS1043940) (European Hornbeam, UniProt P38950 2-160, limits assumed).
T6 construct: Bought reagent
T6 sequence (looked up): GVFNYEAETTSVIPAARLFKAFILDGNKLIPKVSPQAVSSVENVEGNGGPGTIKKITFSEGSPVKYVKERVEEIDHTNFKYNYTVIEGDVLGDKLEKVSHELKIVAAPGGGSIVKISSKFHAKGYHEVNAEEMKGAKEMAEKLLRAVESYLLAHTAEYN
The test can be described thus: SPR Biacore, 25C.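 Note: binding of related allergens to purified monoclonal anti-Bet v 1 antibodies by surface plasmon resonance in HEPES-buffered saline pH 7.4, kinetics fitted to a 1:1 model with mass transport.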

In test [7] the target is T7, Celery (Api g 1, MyBiosource, Cat #MBS1171376) (Celery, UniProt P49372 1-154, limits assumed).
T7 construct: Bought reagent
T7 sequence (looked up): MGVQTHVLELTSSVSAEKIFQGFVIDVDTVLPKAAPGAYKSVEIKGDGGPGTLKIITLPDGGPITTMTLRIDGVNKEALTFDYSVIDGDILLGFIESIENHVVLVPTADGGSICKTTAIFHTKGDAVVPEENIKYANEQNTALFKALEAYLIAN
The test can be described thus: SPR Biacore, 25C.

For test [8], the target named is T2, natural Bet v 1 (Indoor, Cat #NA-BV1-1). The test can be described thus: SPR Biacore, mAb captured on anti-hFc, 37C.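 Note: purified anti-Bet v 1 monoclonal antibodies, HBS-ET running buffer pH 7.4, rate constants from 1:1 model fit with mass transport limitation, KD and t½ calculated from kinetic constants.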

Usually Kd stands for the free concentration of one partner at which half of the binding sites on the other are occupied at equilibrium, for simple one-to-one binding. A low value points to a tighter complex. What is called koff is the first-order rate constant of dissociation. One may read the kon as a measure of how fast the partners come together. For orientation: t½ means how long it takes for the measured level to halve. A high value points to slow loss.

B1: H4H16967P (antibody, human IgG4, V domains shown)
VH: QVQLVESGGGVVQPGRSLRLSCAASGFTFSSYGMHWFRQAPGKGLEWVGVIWSDGSDKKYADSVKGRFTISRDNSKNTLYLLMNSLRDDDTAVYHCAREGGFLYSSSSHFDYWGQGTLVTVSS
VL: AIQMTQSPSSLSASVGDRVTITCRTSQGIRNDLGWYQQKPGKAPKLLIFAASSLQSGVPSRFSGSGSGTDFTLTISSLQPEDFAIYYCLQDYKYPFTFGGGTKVEIK
For B1, the binding result in test [1], in test [3], in test [4], in test [5], in test [6] and in test [7] was “no binding (tested: 100 nM)” in each case. The “100 nM natural Bet v 1 Bound (RU)” value was 27 RU in test [2] and 45 RU in test [8]. In addition, the Kd in test [2] was 3.98 nM; in test [8], 14.3 nM. Besides, the koff is 0.000149 s⁻¹ in test [2] and 0.000719 s⁻¹ in test [8]. The kon in test [2] came to 37600 M⁻¹ s⁻¹; in test [8], 50400 M⁻¹ s⁻¹. In addition, the values for the t½ in test [2] and in test [8] were 77 min and 16 min, respectively.
